Consider six molecules from patent US20250009876A1 (H LUNDBECK A S, published 2025).

What is called Kd is the constant that tells how readily two partners part at equilibrium. Higher therefore signals lower affinity. Usually koff stands for the first-order rate constant of dissociation. High values mean fast dissociation, low ones slow dissociation. What is called kon is the second-order rate constant of association. Lower therefore signals slower complex formation.

Where a chain is given by its changes, count along the chain named. Like-named read-outs stand apart in the source and are kept apart here.

Assay [1] deals with T1, PAC1-R on PAC1-R-expressing PC-12 cells (UniProt P32215 20-523).
T1 construct: whole, on cells; also called PAC1 receptor
T1 sequence (looked up): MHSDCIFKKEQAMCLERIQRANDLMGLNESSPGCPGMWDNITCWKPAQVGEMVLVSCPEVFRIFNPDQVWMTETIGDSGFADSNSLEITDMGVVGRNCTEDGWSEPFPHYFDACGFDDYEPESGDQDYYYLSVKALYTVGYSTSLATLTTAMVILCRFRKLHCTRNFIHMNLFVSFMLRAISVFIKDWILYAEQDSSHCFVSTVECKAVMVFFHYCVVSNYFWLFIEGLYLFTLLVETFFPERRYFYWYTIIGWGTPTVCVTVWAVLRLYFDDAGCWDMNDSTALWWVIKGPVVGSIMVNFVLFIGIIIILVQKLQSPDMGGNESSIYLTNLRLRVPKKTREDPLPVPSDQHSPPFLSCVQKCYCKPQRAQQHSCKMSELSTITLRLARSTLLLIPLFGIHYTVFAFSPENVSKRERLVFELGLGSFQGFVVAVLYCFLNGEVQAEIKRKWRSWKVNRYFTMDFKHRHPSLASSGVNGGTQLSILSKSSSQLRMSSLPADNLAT
Briefly: cell surface binding assay (DELFIA TRF): antibody pre-incubated with PACAP38, added to PAC1-R-expressing PC-12 cells, detected with Eu anti-human IgG. How it is done:
Cells were initially seeded at 1×10⁵ cells/well in a solution of complete RPMI (“cRPMI”: RPMI medium supplemented with 10% sterile heat-inactivated FBS and 1% sterile antibiotic/antimycotic)+10% FBS, and the plates were allowed to incubate overnight at 37° C. On the day of the binding assay, antibodies at an initial concentration of 15 μg/ml were diluted at a 1:3 ratio in DELFIA® binding buffer (50 mM Tris, 150 mM NaCl, 0.1% azide, 2% horse serum) (Perkin-Elmer, Waltham, MA) to a total volume of 60 μL in a separate 96 well round bottom plate. PACAP38 was prepared for the binding assay by diluting it in DELFIA® binding buffer to a concentration of 200 nM, and then 60 μl of the diluted PACAP38 was added to each of the antibody-containing wells to form antibody: antigen complexes. Following addition of PACAP38, the antibody: antigen complexes were incubated at room temperature on a shaker for 1 hour. Separately, the PC-12 cells were prepared for addition of antibody: antigen complexes by washing the cells two times with DELFIA® wash buffer (50 mM Tris, 150 mM NaCl, 0.1% Azide) (Perkin-Elmer, Waltham, MA). After washing the cells two times and following the 1 hour room temperature incubation of the antibody: antigen complexes, 50 μl of the antibody: antigen complex was added to each well containing cells. The mixtures of cells and antibody: antigen complexes were then incubated for 30 minutes at room temperature. Following this 30 minute incubation, each mixture was washed two times with DELFIA® wash buffer (Perkin-Elmer, Waltham, MA).
DELFIA® Europium labeled anti-human IgG detection reagent (Cat #1244-330, Perkin-Elmer, Waltham, MA) was diluted to a concentration of 300 ng/ml in DELFIA® Binding Buffer. Following dilution, 50 μl of the anti-human IgG detection reagent was added to each well containing cells, and a 30 minute incubation at room temperature followed this addition of IgG detection reagent. After completion of the 30 minute room temperature incubation, the cells were then washed two times with DELFIA® wash buffer. Next, 50 μl of DELFIA® Enhancement Solution (Cat #1244-105, Perkin-Elmer, Waltham, MA) was added to each well containing cells for a final 15 minute room temperature incubation with shaking. The plates were then read (TRF, excitation 330 nm, emission 620 nm) on a SPECTRAMAX® (Molecular Devices, Sunnyvale, CA) plate reader.

Assay [2] deals with T2, PACAP27 (Pituitary Adenylate Cyclase-Activating Polypeptide, 27 amino acids) (human, the C-terminal leucine is amidated).
T2 peptide: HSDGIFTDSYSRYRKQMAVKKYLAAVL
Briefly: cell-based or functional assay.

Assay [3] has as its target T3, PACAP38 (Pituitary Adenylate Cyclase-Activating Polypeptide, 38 amino acids) (human, not fully specified; the C-terminal lysine is amidated).
T3 peptide: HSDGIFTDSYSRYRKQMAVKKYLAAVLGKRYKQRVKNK
Briefly: cell-based or functional assay.

In assay [4] the target is T2, PACAP27 (Pituitary Adenylate …). Briefly: SPR (ProteOn XPR36), antibody amine-coupled, peptide analyte, 1:1 Langmuir fit. How it is done:
(§1) Binding affinities of monoclonal antibodies for human PACAP were estimated using SPR on the PROTEON™ XPR36 (Bio-Rad, Hercules, CA). Antibody was immobilized to the surface of general amine coupling (“GLC” or “GLM”) Chips (Bio-Rad, Hercules, CA). […] Antigen (ranging from 1.23 nM to 100 nM) was typically run sequentially with association times of 2-4 minutes and dissociation times of 3-120 minutes grouped with the PROTEON™ Manager Software (v3.1.0.6 (Bio-Rad, Hercules, CA)) and fitted using a 1:1 Langmuir binding model. Surfaces were regenerated between analyte queries using 0.85% Phosphoric Acid.

Assay [5] concerns the target T3, PACAP38 (Pituitary Adenylate …). Described as above. How it is done: as §1
Assay [6] addresses T4, VIP (Vasoactive Intestinal Peptide) (human).
T4 construct: also called human VIP
T4 peptide: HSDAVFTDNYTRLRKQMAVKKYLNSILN
The assay is described as above.

Assay [7] deals with T3, PACAP38 (Pituitary Adenylate …). Briefly: cell-based or functional assay.
Assay [8] deals with T4, VIP (Vasoactive Intestinal Peptide). Briefly: SPR (ProteOn XPR36), antibody amine-coupled, peptide analyte, 1:1 Langmuir fit.
Assay [9] addresses T2, PACAP27 (Pituitary Adenylate …). Described as above. The method, then:
(§2) Binding affinities of monoclonal antibodies for human PACAP were estimated using SPR on the PROTEON™ XPR36 (Bio-Rad, Hercules, CA). Antibody was immobilized to the surface of general amine coupling (“GLC″ or “GLM”) Chips (Bio-Rad, Hercules, CA). […] Antigen (ranging from 1.23 nM to 100 nM) was typically run sequentially with association times of 2-4 minutes and dissociation times of 3-120 minutes grouped with the PROTEON™ Manager Software (v3.1.0.6 (Bio-Rad, Hercules, CA)) and fitted using a 1:1 Langmuir binding model. Surfaces were regenerated between analyte queries using 0.85% Phosphoric Acid, 0.5% SDS, and 0.1N NaOH.

For assay [10], the target named is T3, PACAP38 (Pituitary Adenylate …). Described as above. The method, then:
as §2

The target is the same in assay [11]. Briefly: cell-based or functional assay.

B1: Ab10.H5 (antibody, human IgG1, kappa, N297A)
heavy: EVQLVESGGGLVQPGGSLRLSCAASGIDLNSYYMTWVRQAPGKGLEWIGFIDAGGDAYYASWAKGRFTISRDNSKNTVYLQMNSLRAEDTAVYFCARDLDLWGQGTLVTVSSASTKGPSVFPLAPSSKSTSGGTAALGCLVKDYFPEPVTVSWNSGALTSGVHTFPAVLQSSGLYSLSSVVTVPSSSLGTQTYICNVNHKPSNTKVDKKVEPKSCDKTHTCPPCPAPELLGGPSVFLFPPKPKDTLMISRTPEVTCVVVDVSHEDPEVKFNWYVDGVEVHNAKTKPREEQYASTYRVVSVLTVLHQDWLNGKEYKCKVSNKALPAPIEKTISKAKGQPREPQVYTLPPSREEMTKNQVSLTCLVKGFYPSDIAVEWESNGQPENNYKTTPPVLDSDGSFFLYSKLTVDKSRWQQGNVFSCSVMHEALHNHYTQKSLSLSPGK
light: QLTQSPSTLSASVGDRVTITCQSSESVYGNYLAWFQQKPGKAPKFLIYEASKLESGVPSRFSGSGSGTEFTLTISSLQPDDFATYYCAGGDISEGVAFGGGTKVEIKRTVAAPSVFIFPPSDEQLKSGTASVVCLLNNFYPREAKVQWKVDNALQSGNSQESVTEQDSKDSTYSLSSTLTLSKADYEKHKVYACEVTHQGLSSPVTKSFNRGEC
notes: Full-length humanized variant of Ab10
As to B1, the binding result in assay [1] is “no binding (tested: about 70 nM)”. Besides, the “Inhibition of 1 nM PACAP27-induced PAC1-R mediated cAMP increase IC50 (pM)” value in assay [2] amounted to 733 pM. Also, in [3], the “Inhibition of 0.1 nM PACAP38-induced PAC1-R mediated cAMP increase IC50 (pM)” value was 22.7 pM.

B2: Ab23 (antibody, human IgG1, kappa, N297A, V domains shown)
VH: QSVEESGGRLVTPGTPLTLTCTVSGFSLNNYAMSWVRQAPGKGLEWIGIMGVNDITYYASWAKGRFTISKTSTTVDLKMTSLTTEDTATYFCTREIRDDGDSSDKLWGPGTLVTVSS
VL: AIKMTQTPSSVSAAVGGTVTINCQASEDIYTNLAWYQQKPGQPPNLLIYDASDLASGVPSRFSGSGDGTQFTLTISAVQCEDAATYYCQGVAWSSNTGYGSAFGGGTEVVVKR
notes: Full-length anti-PACAP antibody; rabbit/human chimeric
As for B2, the binding result in assay [1] was “no binding (tested: about 70 nM)”.

B3: Ab10.H2 (antibody, human IgG1, kappa, N297A)
heavy: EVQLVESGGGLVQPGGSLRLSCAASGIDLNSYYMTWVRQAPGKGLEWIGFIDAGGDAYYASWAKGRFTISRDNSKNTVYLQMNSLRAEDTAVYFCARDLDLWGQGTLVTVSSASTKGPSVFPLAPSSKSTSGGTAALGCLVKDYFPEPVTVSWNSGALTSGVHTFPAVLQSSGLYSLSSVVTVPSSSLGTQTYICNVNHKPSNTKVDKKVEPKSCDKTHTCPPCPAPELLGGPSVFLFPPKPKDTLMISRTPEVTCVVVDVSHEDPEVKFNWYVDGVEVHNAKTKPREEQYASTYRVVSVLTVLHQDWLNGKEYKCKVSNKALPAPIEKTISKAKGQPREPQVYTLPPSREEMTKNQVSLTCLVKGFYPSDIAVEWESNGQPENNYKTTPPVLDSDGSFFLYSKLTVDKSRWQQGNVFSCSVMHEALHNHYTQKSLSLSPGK
light: AVLTQSPSTLSASVGDRVTITCQSSESVYGNYLAWFQQKPGKAPKFLIYEASKLESGVPSRFSGSGSGTEFTLTISSLQPDDFATYYCAGGDISEGVAFGGGTKVEIKRTVAAPSVFIFPPSDEQLKSGTASVVCLLNNFYPREAKVQWKVDNALQSGNSQESVTEQDSKDSTYSLSSTLTLSKADYEKHKVYACEVTHQGLSSPVTKSFNRGEC
notes: as for B1
For B3, in assay [1], the binding result is on record as “no binding (tested: about 70 nM)”. For the same molecule, the equilibrium dissociation constant (Kd) turned out to be 0.078 nM in assay [4], 0.022 nM in assay [5] and 230 nM in assay [6]. The koff in [4] was 1.7e-05 s⁻¹; in assay [5] it was 1.4e-05 s⁻¹; in assay [6], 0.046 s⁻¹. The kon was found to be 210000 M⁻¹ s⁻¹ in assay [4], 630000 M⁻¹ s⁻¹ in assay [5] and 200000 M⁻¹ s⁻¹ in assay [6]. In addition, in [2], the “Inhibition of 1 nM PACAP27-induced PAC1-R mediated cAMP increase IC50 (pM)” value was 466 pM. For the same molecule, in assay [3], the “Inhibition of 0.1 nM PACAP38-induced PAC1-R mediated cAMP increase IC50 (pM)” value worked out at 21.3 pM.

B4: Ab10.H4 (antibody, human IgG1, kappa, N297A)
heavy: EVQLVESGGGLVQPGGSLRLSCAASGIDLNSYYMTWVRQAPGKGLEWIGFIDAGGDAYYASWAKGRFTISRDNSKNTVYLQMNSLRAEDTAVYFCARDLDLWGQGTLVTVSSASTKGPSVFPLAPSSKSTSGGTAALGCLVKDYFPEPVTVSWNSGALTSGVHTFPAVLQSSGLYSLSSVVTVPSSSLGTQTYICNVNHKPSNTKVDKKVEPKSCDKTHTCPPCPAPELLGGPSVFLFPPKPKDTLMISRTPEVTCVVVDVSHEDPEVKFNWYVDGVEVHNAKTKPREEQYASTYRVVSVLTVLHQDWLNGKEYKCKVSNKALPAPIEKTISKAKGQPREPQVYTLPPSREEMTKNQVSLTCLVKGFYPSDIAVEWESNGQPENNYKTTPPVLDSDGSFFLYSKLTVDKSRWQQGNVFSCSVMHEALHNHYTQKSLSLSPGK
light: DIVLTQSPSTLSASVGDRVTITCQSSESVYGNYLAWFQQKPGKAPKFLIYEASKLESGVPSRFSGSGSGTEFTLTISSLQPDDFATYYCAGGDISEGVAFGGGTKVEIKRTVAAPSVFIFPPSDEQLKSGTASVVCLLNNFYPREAKVQWKVDNALQSGNSQESVTEQDSKDSTYSLSSTLTLSKADYEKHKVYACEVTHQGLSSPVTKSFNRGEC
notes: as for B1
Turning to B4, the binding result in assay [1] is “no binding (tested: about 70 nM)”. In [4], this molecule showed a Kd of 0.093 nM, a koff of 1.7e-05 s⁻¹ and a kon of 190000 M⁻¹ s⁻¹. For the same molecule, in assay [5], the Kd was at most 0.019 nM, the koff is at most 1e-05 s⁻¹ and the kon is 530000 M⁻¹ s⁻¹. In [6], this molecule displayed a Kd of 98 nM, an off-rate constant (koff) of 0.015 s⁻¹ and a kon of 150000 M⁻¹ s⁻¹. The “Inhibition of 1 nM PACAP27-induced PAC1-R mediated cAMP increase IC50 (pM)” value in [2] turned out to be 329 pM. In [3], the “Inhibition of 0.1 nM PACAP38-induced PAC1-R mediated cAMP increase IC50 (pM)” value was found to be 22.8 pM.

B5: Ab21.H4 (antibody, human IgG1, kappa, N297A)
heavy: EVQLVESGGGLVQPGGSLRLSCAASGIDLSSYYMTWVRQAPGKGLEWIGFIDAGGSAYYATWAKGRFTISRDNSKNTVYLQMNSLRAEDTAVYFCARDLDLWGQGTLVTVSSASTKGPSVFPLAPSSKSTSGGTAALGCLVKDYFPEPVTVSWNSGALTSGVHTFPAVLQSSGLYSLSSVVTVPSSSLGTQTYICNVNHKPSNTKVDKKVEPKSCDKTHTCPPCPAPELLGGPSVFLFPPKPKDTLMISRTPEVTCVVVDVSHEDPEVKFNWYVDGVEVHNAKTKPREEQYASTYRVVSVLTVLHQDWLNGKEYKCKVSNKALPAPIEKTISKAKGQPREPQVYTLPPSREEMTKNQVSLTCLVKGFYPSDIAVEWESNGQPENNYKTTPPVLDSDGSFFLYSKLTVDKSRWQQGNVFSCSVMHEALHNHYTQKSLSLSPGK
light: B4 light with Q24K, N32D, F47Q, E51D, K54T, E56A, D93Y, I94V, E96A
notes: Full-length humanized variant of Ab21
In the case of B5, the “Inhibition of 1 nM PACAP38-induced human VPAC2-R mediated cAMP increase IC50 (pM)” value in assay [7] came to 2880 pM. Also, the Kd was 523 nM in assay [8], at most 0.0351 nM in assay [9] and at most 0.0238 nM in assay [10]. Besides, the koff in assay [8] is 0.0289 s⁻¹; in assay [9] it was at most 1e-05 s⁻¹; in assay [10], at most 1e-05 s⁻¹. For the same molecule, the kon in assay [8] amounted to 55300 M⁻¹ s⁻¹; in assay [9], 285000 M⁻¹ s⁻¹; in assay [10], 420000 M⁻¹ s⁻¹. In [2], the “Inhibition of 1 nM PACAP27-induced PAC1-R mediated cAMP increase IC50 (pM)” value is 275 pM. The “Inhibition of 0.1 nM PACAP38-induced PAC1-R mediated cAMP increase IC50 (pM)” value in [3] was 83.4 pM. Also, the “Inhibition of 5 nM PACAP38-induced human VPAC1-R mediated cAMP increase IC50 (pM)” value in [11] is 2830 pM.

B6: Ab21.H3 (antibody, human IgG1, kappa, N297A)
heavy: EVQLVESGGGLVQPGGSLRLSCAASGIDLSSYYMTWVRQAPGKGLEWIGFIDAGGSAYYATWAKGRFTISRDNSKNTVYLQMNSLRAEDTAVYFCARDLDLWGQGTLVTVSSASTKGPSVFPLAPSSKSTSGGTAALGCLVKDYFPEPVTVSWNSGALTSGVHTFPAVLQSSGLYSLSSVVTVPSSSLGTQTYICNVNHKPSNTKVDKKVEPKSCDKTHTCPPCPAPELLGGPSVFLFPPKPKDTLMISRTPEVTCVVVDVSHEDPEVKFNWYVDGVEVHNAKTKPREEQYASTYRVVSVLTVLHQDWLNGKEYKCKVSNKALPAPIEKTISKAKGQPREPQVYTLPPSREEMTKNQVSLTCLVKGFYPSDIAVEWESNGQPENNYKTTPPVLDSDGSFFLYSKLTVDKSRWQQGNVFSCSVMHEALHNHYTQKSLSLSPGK
light: B4 light with V3Q, Q24K, N32D, F47Q, E51D, K54T, E56A, D93Y, I94V, E96A
notes: as for B5
As to B6, in assay [7], the “Inhibition of 1 nM PACAP38-induced human VPAC2-R mediated cAMP increase IC50 (pM)” value was 1530 pM. Besides, in assay [8], binding was put at a Kd of 424 nM, the koff turned out to be 0.0249 s⁻¹ and the kon worked out at 58700 M⁻¹ s⁻¹. In assay [9], this molecule showed a Kd of at most 0.0311 nM, a koff of at most 1e-05 s⁻¹ and a kon of 322000 M⁻¹ s⁻¹. In [10], the Kd was at most 0.0223 nM, the koff is at most 1e-05 s⁻¹ and the association rate constant (kon) was found to be 449000 M⁻¹ s⁻¹. In addition, the “Inhibition of 1 nM PACAP27-induced PAC1-R mediated cAMP increase IC50 (pM)” value in assay [2] was 318 pM. Also, in assay [3], the “Inhibition of 0.1 nM PACAP38-induced PAC1-R mediated cAMP increase IC50 (pM)” value amounted to 65.3 pM. Besides, in assay [11], the “Inhibition of 5 nM PACAP38-induced human VPAC1-R mediated cAMP increase IC50 (pM)” value worked out at 2520 pM.
